Data on 27 molecules can be found in PMC11667159 (The Journal of Biological Chemistry, 2024).

Substitutions are numbered along the chain they refer to. Names may count otherwise.

For test [1], the target named is dimeric S100B (human, recombinant) (Homo sapiens, UniProt P04271).
Test [2] concerns the target tetrameric S100B (human, recombinant) (human, UniProt P04271).
The target in test [3] is anti-S100B nanobody Nb12 (llama). Kind of test: BLI; Nbs (20 μg/ml) loaded on Ni-NTA biosensor; S100B dimer or tetramer 25-250 nM in solution; 25 °C; 50 mM Tris-HCl pH 7.4, 150 mM NaCl; global 1:1 fit. For orientation: Biolayer interferometry detects binding as a change in optical thickness at a sensor tip.
Test [4] has as its target T1, VC1 domain of human RAGE (receptor for advanced glycation end products), biotinylated (human, UniProt Q15109 23-226, biotin (EZ-Link Sulfo-NHS-Biotin)).
T1 chain: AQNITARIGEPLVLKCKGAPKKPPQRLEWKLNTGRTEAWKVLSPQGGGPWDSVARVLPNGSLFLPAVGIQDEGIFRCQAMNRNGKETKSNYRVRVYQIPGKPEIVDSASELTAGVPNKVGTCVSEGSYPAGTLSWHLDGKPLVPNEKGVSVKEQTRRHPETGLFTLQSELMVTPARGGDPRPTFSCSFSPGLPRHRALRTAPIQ
The test can be described thus: BLI; in the presence of twofold excess Nb1.

Test [5] concerns the target T2, VC1 domain of human RAGE (receptor for advanced glycation end products), biotinylated (human, UniProt Q15109 23-226, biotin (EZ-Link Sulfo-NHS-Biotin)).
T2 construct: RAGE, human, V and C1 immunoglobulin-like domains; also called RAGE-VC1; VC1 RAGE; source: E. coli Rosetta-gami B (DE3), purified
The test can be described thus: BLI; biotinylated RAGE-VC1 (25 μg/ml) loaded on streptavidin biosensor; S100B tetramer 50-750 nM in solution (controls: Nbs alone); 25 °C; PBS, 0.1% BSA, 0.05% Tween-20, 1.1 mM CaCl2; global 1:1 fit. Particulars: both partners purified.

The target of test [6] is T2, VC1 domain of human RAGE (receptor for …). Kind of test: BLI; competition: biotinylated RAGE-VC1 on streptavidin biosensor; S100B tetramer 50-750 nM previously incubated with a twofold excess of Nb; 25 °C; PBS, 0.1% BSA, 0.05% Tween-20, 1.1 mM CaCl2; global 1:1 fit. As to conditions: both partners purified.
For test [7], the target named is T1, VC1 domain of human RAGE (receptor for …). Kind of test: BLI; in the presence of twofold excess Nb18.

Sequence of anti-S100B nanobody Nb12 (llama) (heavy, as listed by the source): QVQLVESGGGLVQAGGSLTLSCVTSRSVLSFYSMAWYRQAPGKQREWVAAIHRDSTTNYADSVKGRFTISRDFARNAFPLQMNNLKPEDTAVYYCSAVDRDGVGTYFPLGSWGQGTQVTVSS

B1: Nb20 (VHH)
VHH: QVQLVESGGGLVQAGASLRLSCAASGRTFSSNYMGWFRQAPGKEREFVGAISWTSGSTSYADSVKGRFTISRDKAKNTVDLQMNSLNPDDTAVYYCAAGPSHRLWFSGRTLATYYDYWGQGTQVTVSS
On to B1, for which the binding result in test [1] was “binds”.

B2: Nb11 (VHH)
VHH: QVQLVESGGGLVQAGGSLRLSCAASASIGIFTVRWWRQAPGKQRALEQRELVAGISGGGTTNFADSVKGRFTISRDNDKKMVYLEMNNLKPEDTAVYYCNYLNSWGQGTQVTVSS
Regarding B2, in test [2], the binding result was “binds”.

B3: Nb27 (VHH)
VHH: QVQLVESGGGLVQAGGSLKLSCAAPGWTVSISYMGWFRQAQGKEREFVGAMSWSDDRISYADSVKGRFTISRDNAKTTVFLQMTSLKPEDTAVYYCAVRRKWSESYDYWGQGTQVTVSS
Turning to B3, in test [1], the binding result is given as “binds”.

B4: Nb6 (VHH)
VHH: QVQLVESGGGLVQAGGSLRLSCAASGNILRLNAMAWYRQAPGKQRELVAYITYKGPTNYAESVKGRFTISRDMAKNTVYLQMNSLKPEDTAAYYCNADYIRTPGPFWGQGTQVTVSS
In the case of B4, the binding result in test [2] was “binds”.

B5: Nb7 (VHH)
VHH: B4 VHH with Y50D, I51N, Y53F, E61D, P105H
For the molecule B5, the binding result in test [2] was “binds”.

B6: Nb2 (VHH)
VHH: QVQLVESGGGWVQAGGSLRLSCTASGSGFGIFAINWFRQAPGKERELVASLSSIGSPKYAESVKGRFTISRDNAKNTVYLQMNSLKPEDTAVYYCNYLNRWGQGTQVTVSS
Consider B6, for which the binding result in test [2] was “binds”.

B7: dimeric S100B (human, recombinant) (natural protein)
chain: MSELEKAMVALIDVFHQYSGREGDKHKLKKSELKELINNELSHFLEEIKEQEVVDKVMETLDNDGDGECDFQEFMAFVAMVTTACHEFFEHE
In general, Kd refers to a measure of binding affinity in units of concentration. Regarding B7, the equilibrium dissociation constant (Kd) in test [3] came out at 4000 nM.

B8: tetrameric S100B (human, recombinant) (natural protein)
chain: B7 chain
notes: S100B, human, isolated as the tetramer (association of two homodimers); also called S100B-4mer; S100B tetramer; source: E. coli (BL21(DE3) E. Cloni EXPRESS), purified
As to B8, the Kd in test [4] is 89 nM; in test [5] it was ~29 nM; in test [7], 70 nM; in test [3] it was 800 nM. Moreover, the “fold increase of KD after incubation with Nb1, against S100B-4mer alone” value in test [6] was 3 fold. In test [6], the “fold increase of KD after incubation with Nb18, against S100B-4mer alone” value is 2.4 fold.

B9: Nb16 (VHH)
VHH: QVQLVESGGGLVQAGGSLRLSCAASGRTVSSKAMGWYRQAPGKQRELVASISTSGSTTVYADSVKGRFTISRDNAKATVYLRMNMLKPEDTAVYYCNYLVGPIDWGQGTQVTVSS
In the case of B9, in test [1], the binding result is “binds”.

B10: Nb17 (VHH)
VHH: B9 VHH with V59N, K76E, T78P, R82Q, E89G, I103A
B10: the binding result in test [1] is listed as “binds”.

B11: Nb22 (VHH)
VHH: QVQLVESGGGLVQPGGSLRLSCAASGTSFSTNVMGWYRQAPGKQRELVARILGGSSTYYADSVKGRFTISRDNDKNTLYLQMNSLKPEDTAVYYCTAGFGPGYWGQGTQVTVSS
On to B11, for which, in test [1], the binding result is “binds”.

B12: Nb23 (VHH)
VHH: B11 VHH with I51M, D74A, L78V, T96A
As for B12, in test [1], the binding result is “binds”.

B13: Nb9 (VHH)
VHH: QVQLVESGGGLVQAGESLRLSCAASGAVFRIFAVNWWRQAPGKQRELVATITSAGDTKYHDSVKGRFTISRDNAKNTVALQMNNLKPEDTAVYQCNVLKYWGQGTQVTVSS
Turning to B13, the binding result in test [2] is listed as “binds”.

B14: Nb10 (VHH)
VHH: B13 VHH with N73I
On to B14, for which, in test [2], the binding result was “binds”.

B15: Nb25 (VHH)
VHH: QVQLVESGGGLVQPGGSLRLSCTVSGIILGSRAMGWYRQTPGKQREFVATISTSGGTTNYADSVKGRFTISRDNAKNTVYLQMNSLKPEDTAIYYCNTLSQVLADRGWGQGTQVTVSS
For B15, the binding result in test [1] is “binds”.

B16: Nb26 (VHH)
VHH: B15 VHH with Q13R, I28M, L29F, E46D, N74S, I93V, L99V, Q101A, A104L
As for B16, the binding result in test [1] was “binds”.

B17: Nb14 (VHH)
VHH: QVQLVESGGGLVQAGDSLRLSCAASARTFSIHAMGWFRQAPGKEREFVAAIGWTGGSPDYSDSAKGRFAISRDNAKNTVFLQMNSLKPEDTAVYYCAFHRAGSYDSTTSYDYWGQGTQVTVSS
Take B17: the binding result in test [1] was “binds”.

B18: Nb3 (VHH)
VHH: QVQLVESGGGLVQAGRSLRLSCAASGRSFSIFAVNWWRQAPGNQRELVASITGGGSIRYADSVKGRFTISRDNAENTVYLQMNSLKPEDTAVYYCNTLNFWGQGTQVTVSS
Regarding B18, the binding result in test [2] was “binds”.

B19: Nb4 (VHH)
VHH: B18 VHH with A33G, W37F, G42E, K64T, T97I
As for B19, the binding result in test [2] was “binds”.

B20: Nb24 (VHH)
VHH: QVQLVESGGGLVQDGGSLRLSCAASGLTFSSLPMGWFRQAPGKEREFVAAMNWGEISTYYADSVKGRFTISRDNGKKTVYLQMNSLKPEDTAVYTCAADLRYSNLKYSRAGYWGQGTQVTVSS
Regarding B20, in test [1], the binding result is “binds”.

B21: Nb15 (VHH)
VHH: QVQLVESGGGLVQAGGSLRLSCVASGILFSNNPMAWYRGAPGKQRELVARIWSGGRTIYGDSLKGRVTISRDNAKNTVYLQMNSLQPEDTAVYYCNSPYTNGWGQGTQVTVSS
Take B21: the binding result in test [1] is reported as “binds”.

B22: Nb13 (VHH)
VHH: QVQLVESGGGLVQPGGSLMLSCAASGFDFATYPMSWVRQAPGKEPEWIASIFPNGVTQSCADSVLGRFTISRDNTKNTLFLEMDRLKLADTAVYYCSKGGAAQSMFDDYWGQGTQVTVSS
For B22, the binding result in test [2] was “binds”.

B23: Nb28 (VHH)
VHH: QVQLVESGGGLVQTGGSLNLSCAPFGTVLSDNDVGWYRQAPGSQRELVAEVDVRGGTNYADSVKGRFTISRDSAKKITFLQMNSLKSEDTAVYYCASDYGLGLLVGLPEYRGQGTQVTVSS
Consider B23, for which the binding result in test [1] is “binds”.

B24: Nb19 (VHH)
VHH: QVQLVESGGGLVQAGGSLRLSCAASGRTFSSYKMGWFRQAPGKEREFVAAFSWTGLNTNYADSVKGRFTISRDNAKSTVYLQMNSLKPEDTAVYYCAAGLGRTVIAGVDYWGQGTQVTVSS
B24: the binding result in test [1] is on record as “binds”.

B25: Nb8 (VHH)
VHH: QVQLVESGGGLVQAGGSLRLACVTSGNIFSISFMRWYRQAPGKQRELVATITSGDRTTYADSVKGRFTISRDNAKNTVYLQMNSLEPEDTAVYYCDINGLRYAGIRSWGQGTQVTVSS
For the molecule B25, the binding result in test [2] was “binds”.

B26: Nb5 (VHH)
VHH: QVQLVESGGGLVQAGGSQRLSCTASGRIFSINDMGWYRQAPGDQRELVAVITSGGATNYTDSVKGRFTISRDDAKNTVYLQMNSLKPEDTAVYYCNADLRTSLKWPPVFHRYWGQGTQVTVSS
For B26, the binding result in test [2] is on record as “binds”.

B27: Nb21 (VHH)
VHH: QVQLVESGGGLVQAGDSLRLSCAASGRTFSNYGIGWFRQAPGKEREFVARVAWSTAITKYADAVKGRFTISRDNAKNMVYLQMNSLKPEDTAVYYCAAGKYGTAWITISGYDFWGQGTQVTVSS
As to B27, the binding result in test [1] is given as “binds”.
